Test results taken from patent US20100311820, “NUCLEIC ACID MODULATORS OF GLYCOPROTEIN VI” (Regado Biosciences, Inc, published 2010).

T1: Glycoprotein VI extracellular domain (Gln21-Lys267) (Homo sapiens, UniProt Q9HCN6 SEQ:1-247)
T1 chain: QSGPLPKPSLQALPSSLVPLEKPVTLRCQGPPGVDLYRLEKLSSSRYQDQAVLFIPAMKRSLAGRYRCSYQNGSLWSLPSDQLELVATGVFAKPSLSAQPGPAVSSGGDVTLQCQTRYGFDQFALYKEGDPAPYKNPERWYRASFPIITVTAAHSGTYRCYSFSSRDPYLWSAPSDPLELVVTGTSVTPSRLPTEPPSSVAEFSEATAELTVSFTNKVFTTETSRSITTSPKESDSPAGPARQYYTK


Target: T1, Glycoprotein VI extracellular domain …
Assay: filter
Conditions: tags: C-terminal His6; R&D Systems 3627-GP; label: 5'-32P
Method: Enrichment of the ligand libraries for GPVI was monitored in direct binding studies utilizing radiolabeled ligand RNA from respective rounds of SELEX and soluble GPVI. Binding studies were performed with trace P³² end-labeled RNA added to serial dilutions of GPVI in Binding Buffer F. To prepare radiolabeled RNAs for binding studies, one hundred picomoles of RNA was dephosphorylated with Bacterial Alkaline Phopshatase at 50° C. for 1 hour. The reaction was phenol:chloroform:isoamyl alcohol (25:24:1) extracted, chloroform: isoamyl:alcohol (24:1) extracted, and ethanol precipitated. Three pmoles of dephosphorylated RNA was end labeled with T4 Poylnucleotide Kinase with supplied buffer, and 20 μCi of γ-P³²-ATP and subsequently cleaned with a Biorad MicroBio Spin P-30 spin column. End-labeled RNA was diluted to a final concentration of 2000 cpm/μL and heat denatured at 65° C. for 5 minutes. RNA and GPVI dilutions were equilibrated at 37° C. prior to use. RNA (5 μL) was added to varying concentrations of GPVI (15 μL) at 37° C. and incubated together for 5 to 15 minutes. The complexed RNA/GPVI protein mixture was then loaded over a Protean BA85 nitrocellulose membrane, overlayed on a Genescreen Plus Nylon membrane, in a 96 well vacuum manifold system with washing. The membranes were exposed to a phosphorimager screen, scanned, and quantitated with a Molecular Dynamics Storm 840 Phosphorimager. The fraction bound was calculated by dividing the counts on the nitrocellulose by the total counts and adjusting for the background. Results for binding of enriched ligand libraries from round 10 E2 and round 10 EF of the SELEX as compared to the GPVI-naïve starting ligand library are shown in FIG. 3.

Row | Binder | Kd [nM]
1 | GGGAGGACGGCGAUCACACGCCUUGCGUAAGCCUCCC (ssRNA, 2'-F C and U; 2'-OH A and G) [EF-3 T5 (RB447)] | 15.5
2 | GGGAGGACGGCGGAUCACACCGCCUUGCGUAAGCCUCCC (ssRNA, 2'-F C and U; 2'-OH A and G) [EF-3 T4 (RB446)] | 15.5
3 | GGGAGGACGGCGUCUAAGCGCCUGGCAUAAGCCUCCC (ssRNA, 2'-F C and U; 2'-OH A and G) [EF-31 T6 (RB443)] | 15.5
4 | GGGAGGACGAUGCGGUCUAAGCUGCGUCUGGCAUAAGCCUCACC (ssRNA, 2'-F C and U; 2'-OH A and G) [EF-31 T2 (RB439)] | 15.5
5 | EF-3 (RB429) (ssRNA, 2'-F C and U; 2'-OH A and G) RNA: GGGAGGACGAUGCGGAUCACACCGCGUCUUGCGUAAGCCUCCUACUAACGGAUCGCAGACGACUCGCUGAGGAUCCGAGA | 15.5
6 | GGGAGGACGAUGCGGUGCCAAAACACCCGUCUUGCAUAAGCCUCCU (ssRNA, 2'-F C and U; 2'-OH A and G) [EF-2 T2 (RB428)] | 15.5
7 | GGAGGACGGCGCGCCUGGCAUAAGCCUCC (ssRNA, RB551 with PS G8-G9) [RB555] | < 10
8 | E2-6 (RB431) (ssRNA, 2'-F C and U; 2'-OH A and G) RNA: GGGAGGACGAUGCGGAUAGACCGCGUCUGGCAUAAGCCUCCAAACACUCUGAUCCCAGACGACUCGCUGAGGAUCCGAGA | 15.5
9 | GGGAGGACGGCGCGCCUGGCAUAAGCCUCCC (ssRNA, RB490 pattern but 2'-OH G19 and 2'-F C26) [RB488] | < 10
10 | GGGAGGACGGCGCGCCUGGCAUAAGCCUCCC (ssRNA, RB490 with 2'-deoxy A7) [RB495] | < 10
11 | GGGAGGACGGCGCGCCUGGCAUAAGCCUCCC (ssRNA, RB524 with 2'-deoxy A7,G9) [RB526] | 15.5
12 | GGGAGGACGGCGCGCCUGGCAUAAGCCUCCC (ssRNA, RB490 with 2'-OMe U22) [RB504] | 15.5
13 | GGGAGGACGGCGCGCCUGGCAUAAGCCUCCC (ssRNA, RB490 with 2'-OMe G10) [RB499] | 15.5
14 | GGGAGGACGGCGCGCCUGGCAUAAGCCUCCC (ssRNA, RB490 with 2'-OMe G9) [RB497] | < 10
15 | GGGAGGACGGCGCGCCUGGCAUAAGCCUCCC (ssRNA, RB490 with 2'-OMe G25) [RB502] | < 10
16 | GGGAGGACGGCGCGCCUGGCAUAAGCCUCCC (ssRNA, RB490 with 2'-OMe A21) [RB503] | < 10
17 | GGGAGGACGGCGCGCCUGGCAUAAGCCUCCC (ssRNA, RB490 with 2'-OMe A24) [RB506] | < 10
18 | GGGAGGACGGCGCGCCUGGCAUAAGCCUCCC (ssRNA, RB490 with 2'-OMe A7) [RB492] | 15.5
19 | GGGAGGACGGCGCGCCUGGCAUAAGCCUCCC (ssRNA, RB520 with 2'-F C15) [RB524] | 15.5
20 | GGGAGGACGGCGCGCCUGGCAUAAGCCUCCC (ssRNA, RB490 with 2'-deoxy C8) [RB496] | 15.5
21 | GGGAGGACGGCGCGCCUGGCAUAAGCCUCCC (ssRNA, RB490 with 2'-OMe G6) [RB491] | < 10
22 | GGGAGGACGGCGCGCCUGGCAUAAGCCUCCC (ssRNA, RB490 with 2'-OMe G6,A7) [RB518] | 15.5

Row | Binder | Kd [nM]
23 | GGGAGGACGGCGCGCCUGGCAUAAGCCUCCC (ssRNA, RB490 with 2'-OMe G6, 2'-deoxy A7) [RB519] | < 10
24 | GGGAGGACGGCGCGCCUGGCAUAAGCCUCCC (ssRNA, RB490 with 2'-OMe C8) [RB493] | 15.5
25 | GGGAGGACGGCGCGCCUGGCAUAAGCCUCCC (ssRNA, RB490 with 2'-OMe A23) [RB505] | < 10
26 | GGGAGGACGGCGCGCCUGGCAUAAGCCUCCC (ssRNA, RB490 with 2'-OMe C15) [RB500] | < 10
27 | GGAGGACGGCGCGCCUGGCAUAAGCCUCC (ssRNA, RB551 with PS G9-C10) [RB556] | < 10
28 | EF-2 T1 (ssRNA, 2'-F C and U; 2'-OH A and G) RNA: GGGAGGACGAUGCGGUGCCAAAACACCCGUCUUGCAUAAGCCUCCUACGGCAACU | 15.5
29 | GGGAGGACGAUGCGGAUUCAACCCGCCUCUGGCAUAAGCCUACCC (ssRNA, 2'-F C and U; 2'-OH A and G) [EF-22 T1 (RB434)] | 15.5
30 | GGGAGGACGAUGCGGUCUAAGCUGCGUCUGGCAUAAGCCUCCC (ssRNA, 2'-F C and U; 2'-OH A and G) [EF-31 T3 (RB440)] | 15.5
31 | GGGAGGACGAUGCGGAUAGACCGCGUCUGGCAUAAGCCUCC (ssRNA, 2'-F C and U; 2'-OH A and G) [E2-6 T1 (RB432)] | 15.5
32 | EF-31 (RB435) (ssRNA, 2'-F C and U; 2'-OH A and G) RNA: GGGAGGACGAUGCGGUCUAAGCUGCGUCUGGCAUAAGCCUCACCUACUCGAUACUCAGACGACUCGCUGAGGAUCCGAGA | 15.5
33 | GGAGGACGGCGCGCCUGGCAUAAGCCUCC (ssRNA, RB551 with PS C7-G8) [RB554] | < 10
34 | GGAGGACGGCGCGCCUGGCAUAAGCCUCC (ssRNA, RB540 with PS G9-C10) [RB550] | < 10
35 | GGGAGGACGAUGCGGUCUAAGCUGCGUCUGGCAUAAGCCUCACCUACU (ssRNA, 2'-F C and U; 2'-OH A and G) [EF-31 T1 (RB436)] | 15.5
36 | GGAGGACGGCGCGCCUGGCAUAAGCCUCC (ssRNA, RB540 with PS C7-G8 and G8-G9) [RB561] | < 10
37 | GGGAGGACGGCGCUAACGCCUGGCAUAAGCCUCCC (ssRNA, 2'-F C and U; 2'-OH A and G) [EF-31 T7 (RB444)] | 15.5
38 | GGGAGGACGGCGCUAACGCCUGGCAUAAGCCUCCC (ssRNA, RB448 with 2'-OMe G22) [RB460] | 15.5
39 | GGGAGGACGGCGCUAACGCCUGGCAUAAGCCUCCC (ssRNA, RB448 with 2'-OMe C11,G12,C17,G18) [RB455] | 15.5
40 | GGGAGGACGGCGCUAACGCCUGGCAUAAGCCUCCC (ssRNA, RB448 with 2'-OMe at most of Stem 1 (G1,G2,G3,A4 and 3' partners)) [RB452] | 15.5
41 | GGGAGGACGGCGGUCUAAGCUGCCUGGCAUAAGCCUCCC (ssRNA, 2'-F C and U; 2'-OH A and G) [EF-31 T5 (RB442)] | 15.5
42 | EF-22 (RB433) (ssRNA, 2'-F C and U; 2'-OH A and G) RNA: GGGAGGACGAUGCGGAUUCAACCCGCCUCUGGCAUAAGCCUACCCAUCGUGAUUGUCAGACGACUCGCUGAGGAUCCGAGA | 15.5
43 | GGGAGGACGAUGCGGAUCACACCGCGUCUUGCGUAAGCCUCCU (ssRNA, 2'-F C and U; 2'-OH A and G) [EF-3 T2 (RB430)] | 15.5
